Data published in publication PMC3598503 (2013).
Bridges are numbered along the chain shown (N, C = ends). Where no end group is shown, it is not given here.

Target: T1, p32 (Homo sapiens, UniProt Q07021)
T1 chain: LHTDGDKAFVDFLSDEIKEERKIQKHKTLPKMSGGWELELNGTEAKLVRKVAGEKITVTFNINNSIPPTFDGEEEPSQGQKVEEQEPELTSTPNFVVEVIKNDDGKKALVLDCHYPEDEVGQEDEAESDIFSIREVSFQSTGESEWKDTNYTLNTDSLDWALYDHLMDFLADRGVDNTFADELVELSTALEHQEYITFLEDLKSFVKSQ
Experiment: SPR

CGNKRTRGC (disulfide 1-9) [Lyp-1]
Kd: 10.6 nM
